# B1: H6.23v3 Fab fragment (Fab, V domains shown)
# VH: EVQLVESGGGLVQPGGSLRLSCAASGFNIYYNYIHWVRQAPGKGLEWVAEFSPYSGSTYYADSVKGRFTISADTSKNTAYLQMNSLRAEDTAVYYCARSAAIVDWYDYFKGFDYWGQGTLVTVSS
# VL: DIQMTQSPSSLSASVGDRVTITCRASQSVSSAVAWYQQKPGKAPKLLIYSASSLYSGVPSRFSGSRSGTDFTLTISSLQPEDFATYYCQQYGSYLYTFGQGTKVEIK
# B2: anti-GCGR antibody H6.23v3 (antibody, V domains shown)
# VH: B1 VH
# VL: B1 VL
# Key:
# [1] = molecular target: solubilized, full length GCGR, biotinylated (from baculovirus particles) (Homo sapiens (Human)) (UniProt P47871); assay: Octet BLI kinetics, biotinylated solubilized full length GCGR on streptavidin tips, Fab in solution
# [2] = molecular target: T1, GCGR (glucagon receptor) on primary human hepatocytes (human, UniProt P47871 26-477); assay: competition with 3 nM 125I-glucagon on primary human hepatocytes, gamma counting
# T1 construct: Endogenous receptor on primary human hepatocytes (Celsis)
# T1 sequence (P47871 26-477 limits assumed): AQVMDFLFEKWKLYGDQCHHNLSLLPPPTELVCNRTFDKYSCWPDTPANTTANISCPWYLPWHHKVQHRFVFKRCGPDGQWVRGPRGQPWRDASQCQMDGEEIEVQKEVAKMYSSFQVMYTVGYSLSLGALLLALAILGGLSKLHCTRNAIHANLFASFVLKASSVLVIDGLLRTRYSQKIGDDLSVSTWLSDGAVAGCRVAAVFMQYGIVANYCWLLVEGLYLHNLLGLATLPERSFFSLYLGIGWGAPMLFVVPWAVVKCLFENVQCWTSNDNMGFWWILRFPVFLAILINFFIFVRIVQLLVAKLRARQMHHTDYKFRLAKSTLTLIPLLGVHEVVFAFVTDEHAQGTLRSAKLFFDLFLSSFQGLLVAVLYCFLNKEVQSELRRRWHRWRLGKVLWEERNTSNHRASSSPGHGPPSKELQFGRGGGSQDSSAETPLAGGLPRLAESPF
# solubilized, full length GCGR, biotinylated (from baculovirus particles) (Homo sapiens (Human)), sequence (P47871 26-477): as the sequence (P47871 26-477 limits assumed) above
Binder,fold increase in affinity (Kd) over H6.23v2 [1] [fold],binding result [2]
B1,3,
B2,,binds

# From patent WO2013059531A1 (dated 2013)
